# In patent US20260144882A1 (BIO THERA SOLUTIONS, published 2026):
# T1: human Nectin-4 extracellular antigen hNectin-4-His (human, UniProt Q96NY8 32-349)
# T1 construct: C-terminal 8xHis tag included
# T1 sequence: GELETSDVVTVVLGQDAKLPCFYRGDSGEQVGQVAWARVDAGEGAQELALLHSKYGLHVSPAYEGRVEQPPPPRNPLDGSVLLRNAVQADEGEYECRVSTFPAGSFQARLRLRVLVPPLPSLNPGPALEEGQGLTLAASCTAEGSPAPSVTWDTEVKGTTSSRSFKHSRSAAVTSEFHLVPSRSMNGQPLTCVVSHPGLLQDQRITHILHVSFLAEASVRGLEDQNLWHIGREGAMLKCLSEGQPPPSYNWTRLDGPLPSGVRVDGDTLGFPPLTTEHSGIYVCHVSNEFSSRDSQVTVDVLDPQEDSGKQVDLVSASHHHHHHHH
# Columns and labels:
# [1] = target: T1, human Nectin-4 extracellular antigen …; test: ELISA, phage scFv supernatant 1:50
# [2] = target: T1, human Nectin-4 extracellular antigen …; test: ELISA, coated hNectin-4-His
# Text: The binding activity of the antibodies was detected by ELISA.
# [3] = target: T1, human Nectin-4 extracellular antigen …; test: SPR, antibody on Protein A chip, 1:1 fit
# Text: In this study, the affinity of the antibodies for the human Nectin-4 extracellular antigen was detected by surface plasmon resonance (SPR) technique (BIAcore: GE Healthcare, T200).
binder,measurement,setting,value
"10F4-2B11 scFv (scFv, V domains shown, phage clone supernatant) VH: EVQLVESGGGLVQPGGSLRLSCAASGGSFTNYWMSWVRQAPGKGLEWVSVIDSTGSNRFYADSVKGRFTISRDNSKNTLYLQMNSLRAEDTAVYYCAREYSDVVDYVSVRTPLDYWGQGTLVTVSS VL: DIQMTQSPSSLSASVGDRVTITCRASQGISSYLAWYQQKPGKAPKLLIYAASSLQSGVPSRFSGSGSGTDFTLTISSLQPEDFATYYCQQHYTTPPTFGQGTKVEIKR",OD value,[1],1.55 OD
"1G8-1C12 scFv (scFv, V domains shown, phage clone supernatant) VH: EVQLVESGGGLVQPGGSLRLSCAASGGSFYGFGMSWVRQAPGKGLEWVSGIYSHDADKRYADSVKGRFTISRDNSKNTLYLQMNSLRAEDTAVYYCARQTEDRSYGYDLDYWGQGTLVTVSS VL: DIQMTQSPSSLSASVGDRVTITCRASQGISSYLAWYQQKPGKAPKLLIYAASSLQSGVPSRFSGSGSGTDFTLTISSLQPEDFATYYCQQHYTTPPTFGQGTKVEIKR",OD value,[1],1.42 OD
"antibody 1F3-1F4 (antibody, human IgG1, kappa, V domains shown) VH: EVQLVESGGGLVQPGGSLRLSCAASGDIFTGSSMSWVRQAPGKGLEWVSGIYASGSDKRYADSVKGRFTISRDNSKNTLYLQMNSLRAEDTAVYYCARAELLAFDVYTASDYWGQGTLVTVSS VL: DIQMTQSPSSLSASVGDRVTITCRASQGISSYLAWYQQKPGKAPKLLIYAASSLQSGVPSRFSGSGSGTDFTLTISSLQPEDFATYYCQQHYTTPPTFGQGTKVEIKR",EC50,[2],9 ng/mL
"10F4-2C2 scFv (scFv, V domains shown, phage clone supernatant) VH: EVQLVESGGGLVQPGGSLRLSCAASGFNFSNYWMSWVRQAPGKGLEWVSVIDAHSANIRYADSVKGRFTISRDNSKNTLYLQMNSLRAEDTAVYYCAREYSDVVDYVSVRTPLDYWGQGTLVTVSS VL: DIQMTQSPSSLSASVGDRVTITCRASQGISSYLAWYQQKPGKAPKLLIYAASSLQSGVPSRFSGSGSGTDFTLTISSLQPEDFATYYCQQHYTTPPTFGQGTKVEIKR",OD value,[1],1.58 OD
"antibody 1G8-2H4 (antibody, human IgG1, kappa, V domains shown) VH: EVQLVESGGGLVQPGGSLRLSCAASGDSFTGYAMSWVRQAPGKGLEWVSAISGSGGSTYYADSVKGRFTISRDNSKNTLYLQMNSLRAEDTAVYYCARQTEDRSYGYDLDYWGQGTLVTVSS VL: DIQMTQSPSSLSASVGDRVTITCRASQGISSYLAWYQQKPGKAPKLLIYAASSLQSGVPSRFSGSGSGTDFTLTISSLQPEDFATYYCQQHYTTPPTFGQGTKVEIKR",EC50,[2],39 ng/mL
"antibody 1G8-2H8 (antibody, human IgG1, kappa, V domains shown) VH: EVQLVESGGGLVQPGGSLRLSCAASGDIFGSYAMSWVRQAPGKGLEWVSAISGSGGSTYYADSVKGRFTISRDNSKNTLYLQMNSLRAEDTAVYYCARQTEDRSYGYDLDYWGQGTLVTVSS VL: DIQMTQSPSSLSASVGDRVTITCRASQGISSYLAWYQQKPGKAPKLLIYAASSLQSGVPSRFSGSGSGTDFTLTISSLQPEDFATYYCQQHYTTPPTFGQGTKVEIKR",EC50,[2],5 ng/mL
"antibody 1F3-1C4 (antibody, human IgG1, kappa, V domains shown) VH: EVQLVESGGGLVQPGGSLRLSCAASGFTFGDYGMSWVRQAPGKGLEWVSGIKPWGSGTYYADSVKGRFTISRDNSKNTLYLQMNSLRAEDTAVYYCARAELLAFDVYTASDYWGQGTLVTVSS VL: DIQMTQSPSSLSASVGDRVTITCRASQGISSYLAWYQQKPGKAPKLLIYAASSLQSGVPSRFSGSGSGTDFTLTISSLQPEDFATYYCQQHYTTPPTFGQGTKVEIKR",EC50,[2],11 ng/mL
"antibody 1G8-1G3 (antibody, human IgG1, kappa, V domains shown) VH: EVQLVESGGGLVQPGGSLRLSCAASGFNFGTYAMSWVRQAPGKGLEWVSRISGISAGTNYADSVKGRFTISRDNSKNTLYLQMNSLRAEDTAVYYCARQTEDRSYGYDLDYWGQGTLVTVSS VL: DIQMTQSPSSLSASVGDRVTITCRASQGISSYLAWYQQKPGKAPKLLIYAASSLQSGVPSRFSGSGSGTDFTLTISSLQPEDFATYYCQQHYTTPPTFGQGTKVEIKR",EC50,[2],4 ng/mL
same,Kd,[3],3 nM
same,koff,[3],0.00141 s⁻¹
same,kon,[3],471000 M⁻¹ s⁻¹
"antibody 1F3-1E4 (antibody, human IgG1, kappa, V domains shown) VH: EVQLVESGGGLVQPGGSLRLSCAASGFSFGTYGMSWVRQAPGKGLEWVSRISGDSANIRYADSVKGRFTISRDNSKNTLYLQMNSLRAEDTAVYYCARAELLAFDVYTASDYWGQGTLVTVSS VL: DIQMTQSPSSLSASVGDRVTITCRASQGISSYLAWYQQKPGKAPKLLIYAASSLQSGVPSRFSGSGSGTDFTLTISSLQPEDFATYYCQQHYTTPPTFGQGTKVEIKR",Kd,[3],0.426 nM
same,koff,[3],0.000825 s⁻¹
same,kon,[3],1.94e+06 M⁻¹ s⁻¹
"antibody 1G8-2F11 (antibody, human IgG1, kappa, V domains shown) VH: EVQLVESGGGLVQPGGSLRLSCAASGYTFGSNAMSWVRQAPGKGLEWVSRISPDSSGISYADSVKGRFTISRDNSKNTLYLQMNSLRAEDTAVYYCARQTEDRSYGYDLDYWGQGTLVTVSS VL: DIQMTQSPSSLSASVGDRVTITCRASQGISSYLAWYQQKPGKAPKLLIYAASSLQSGVPSRFSGSGSGTDFTLTISSLQPEDFATYYCQQHYTTPPTFGQGTKVEIKR",EC50,[2],4 ng/mL
"antibody 1F3-1D12 (antibody, human IgG1, kappa, V domains shown) VH: EVQLVESGGGLVQPGGSLRLSCAASGYNFTDYGMSWVRQAPGKGLEWVSGISGSGDNKYYADSVKGRFTISRDNSKNTLYLQMNSLRAEDTAVYYCARAELLAFDVYTASDYWGQGTLVTVSS VL: DIQMTQSPSSLSASVGDRVTITCRASQGISSYLAWYQQKPGKAPKLLIYAASSLQSGVPSRFSGSGSGTDFTLTISSLQPEDFATYYCQQHYTTPPTFGQGTKVEIKR",EC50,[2],7 ng/mL
"antibody 1G8-1C10 (antibody, human IgG1, kappa, V domains shown) VH: EVQLVESGGGLVQPGGSLRLSCAASGFNFSDYSMSWVRQAPGKGLEWVSRIKASSGGSDYADSVKGRFTISRDNSKNTLYLQMNSLRAEDTAVYYCARQTEDRSYGYDLDYWGQGTLVTVSS VL: DIQMTQSPSSLSASVGDRVTITCRASQGISSYLAWYQQKPGKAPKLLIYAASSLQSGVPSRFSGSGSGTDFTLTISSLQPEDFATYYCQQHYTTPPTFGQGTKVEIKR",EC50,[2],5 ng/mL
"antibody 1G8-2C6 (antibody, human IgG1, kappa, V domains shown) VH: EVQLVESGGGLVQPGGSLRLSCAASGDNFSSYAMSWVRQAPGKGLEWVSRIYGSDSTPDYADSVKGRFTISRDNSKNTLYLQMNSLRAEDTAVYYCARQTEDRSYGYDLDYWGQGTLVTVSS VL: DIQMTQSPSSLSASVGDRVTITCRASQGISSYLAWYQQKPGKAPKLLIYAASSLQSGVPSRFSGSGSGTDFTLTISSLQPEDFATYYCQQHYTTPPTFGQGTKVEIKR",EC50,[2],5 ng/mL
same,Kd,[3],1.87 nM
same,koff,[3],0.00137 s⁻¹
same,kon,[3],734000 M⁻¹ s⁻¹
"antibody 1G8-1E10 (antibody, human IgG1, kappa, V domains shown) VH: EVQLVESGGGLVQPGGSLRLSCAASGDSFSTYAMSWVRQAPGKGLEWVSRISGSGDGKDYADSVKGRFTISRDNSKNTLYLQMNSLRAEDTAVYYCARQTEDRSYGYDLDYWGQGTLVTVSS VL: DIQMTQSPSSLSASVGDRVTITCRASQGISSYLAWYQQKPGKAPKLLIYAASSLQSGVPSRFSGSGSGTDFTLTISSLQPEDFATYYCQQHYTTPPTFGQGTKVEIKR",EC50,[2],6 ng/mL
same,Kd,[3],1.31 nM
same,koff,[3],0.00087 s⁻¹
same,kon,[3],665000 M⁻¹ s⁻¹
"antibody 1F3-2D2 (antibody, human IgG1, kappa, V domains shown) VH: EVQLVESGGGLVQPGGSLRLSCAASGFNFSSYGMSWVRQAPGKGLEWVSRISPYTGTTHYADSVKGRFTISRDNSKNTLYLQMNSLRAEDTAVYYCARAELLAFDVYTASDYWGQGTLVTVSS VL: DIQMTQSPSSLSASVGDRVTITCRASQGISSYLAWYQQKPGKAPKLLIYAASSLQSGVPSRFSGSGSGTDFTLTISSLQPEDFATYYCQQHYTTPPTFGQGTKVEIKR",EC50,[2],15 ng/mL
